Test results from patent US20250043020A1.

Tests used:
[1] = molecular target: human Ankyrin Repeat Domain-Containing Protein 30B (NY-BR-1.1), full-length, on cells (human) (UniProt Q9BXX2); assay: flow cytometry on NY-BR-1.1 transfected Bosc23 cells; PE anti-mouse Fcγ subclass I secondary
[2] = molecular target: human Ankyrin Repeat Domain-Containing Protein 30A (NY-BR-1), full-length, on cells (human) (UniProt Q9BXX3); assay: flow cytometry on NY-BR-1 transfected Bosc23 cells; PE anti-mouse Fcγ subclass I secondary
Chain of UniProt Q9BXX3 (Q9BXX3 whole entry, the tested form may be a part): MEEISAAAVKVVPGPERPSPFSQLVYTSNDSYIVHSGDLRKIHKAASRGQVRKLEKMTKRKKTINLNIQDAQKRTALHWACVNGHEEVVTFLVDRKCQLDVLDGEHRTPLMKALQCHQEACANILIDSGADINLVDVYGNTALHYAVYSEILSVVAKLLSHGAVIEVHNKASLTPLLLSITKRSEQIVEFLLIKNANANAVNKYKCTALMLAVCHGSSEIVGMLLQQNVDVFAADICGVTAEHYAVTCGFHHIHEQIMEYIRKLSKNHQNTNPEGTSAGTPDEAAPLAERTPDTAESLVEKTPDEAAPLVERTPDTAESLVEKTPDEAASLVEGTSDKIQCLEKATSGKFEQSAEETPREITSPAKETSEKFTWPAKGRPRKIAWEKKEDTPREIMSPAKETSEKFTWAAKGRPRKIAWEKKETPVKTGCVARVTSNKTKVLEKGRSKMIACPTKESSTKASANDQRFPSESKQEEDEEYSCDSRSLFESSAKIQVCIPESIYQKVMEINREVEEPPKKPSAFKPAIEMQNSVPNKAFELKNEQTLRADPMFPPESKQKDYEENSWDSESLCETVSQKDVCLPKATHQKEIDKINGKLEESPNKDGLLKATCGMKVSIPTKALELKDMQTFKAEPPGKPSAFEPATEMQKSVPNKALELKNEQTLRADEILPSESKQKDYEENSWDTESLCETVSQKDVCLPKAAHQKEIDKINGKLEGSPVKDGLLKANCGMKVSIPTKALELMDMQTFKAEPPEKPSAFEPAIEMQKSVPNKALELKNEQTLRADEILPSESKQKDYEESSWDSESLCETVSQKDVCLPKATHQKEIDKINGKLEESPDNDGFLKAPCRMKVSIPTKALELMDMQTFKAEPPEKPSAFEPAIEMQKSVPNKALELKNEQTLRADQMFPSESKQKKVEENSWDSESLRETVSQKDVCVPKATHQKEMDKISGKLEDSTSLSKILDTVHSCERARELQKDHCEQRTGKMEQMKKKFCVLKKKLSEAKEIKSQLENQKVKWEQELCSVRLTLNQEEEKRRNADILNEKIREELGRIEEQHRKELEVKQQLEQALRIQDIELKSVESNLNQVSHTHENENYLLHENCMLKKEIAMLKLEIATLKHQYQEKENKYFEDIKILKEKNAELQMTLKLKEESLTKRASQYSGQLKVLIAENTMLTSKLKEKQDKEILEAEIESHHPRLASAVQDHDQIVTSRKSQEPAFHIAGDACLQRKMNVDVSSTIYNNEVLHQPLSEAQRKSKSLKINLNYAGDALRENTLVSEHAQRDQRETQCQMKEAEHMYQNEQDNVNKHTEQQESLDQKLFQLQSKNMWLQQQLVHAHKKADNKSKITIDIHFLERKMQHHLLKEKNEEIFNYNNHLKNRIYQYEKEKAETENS

Chain of UniProt Q9BXX2 (Q9BXX2 whole entry, the tested form may be a part): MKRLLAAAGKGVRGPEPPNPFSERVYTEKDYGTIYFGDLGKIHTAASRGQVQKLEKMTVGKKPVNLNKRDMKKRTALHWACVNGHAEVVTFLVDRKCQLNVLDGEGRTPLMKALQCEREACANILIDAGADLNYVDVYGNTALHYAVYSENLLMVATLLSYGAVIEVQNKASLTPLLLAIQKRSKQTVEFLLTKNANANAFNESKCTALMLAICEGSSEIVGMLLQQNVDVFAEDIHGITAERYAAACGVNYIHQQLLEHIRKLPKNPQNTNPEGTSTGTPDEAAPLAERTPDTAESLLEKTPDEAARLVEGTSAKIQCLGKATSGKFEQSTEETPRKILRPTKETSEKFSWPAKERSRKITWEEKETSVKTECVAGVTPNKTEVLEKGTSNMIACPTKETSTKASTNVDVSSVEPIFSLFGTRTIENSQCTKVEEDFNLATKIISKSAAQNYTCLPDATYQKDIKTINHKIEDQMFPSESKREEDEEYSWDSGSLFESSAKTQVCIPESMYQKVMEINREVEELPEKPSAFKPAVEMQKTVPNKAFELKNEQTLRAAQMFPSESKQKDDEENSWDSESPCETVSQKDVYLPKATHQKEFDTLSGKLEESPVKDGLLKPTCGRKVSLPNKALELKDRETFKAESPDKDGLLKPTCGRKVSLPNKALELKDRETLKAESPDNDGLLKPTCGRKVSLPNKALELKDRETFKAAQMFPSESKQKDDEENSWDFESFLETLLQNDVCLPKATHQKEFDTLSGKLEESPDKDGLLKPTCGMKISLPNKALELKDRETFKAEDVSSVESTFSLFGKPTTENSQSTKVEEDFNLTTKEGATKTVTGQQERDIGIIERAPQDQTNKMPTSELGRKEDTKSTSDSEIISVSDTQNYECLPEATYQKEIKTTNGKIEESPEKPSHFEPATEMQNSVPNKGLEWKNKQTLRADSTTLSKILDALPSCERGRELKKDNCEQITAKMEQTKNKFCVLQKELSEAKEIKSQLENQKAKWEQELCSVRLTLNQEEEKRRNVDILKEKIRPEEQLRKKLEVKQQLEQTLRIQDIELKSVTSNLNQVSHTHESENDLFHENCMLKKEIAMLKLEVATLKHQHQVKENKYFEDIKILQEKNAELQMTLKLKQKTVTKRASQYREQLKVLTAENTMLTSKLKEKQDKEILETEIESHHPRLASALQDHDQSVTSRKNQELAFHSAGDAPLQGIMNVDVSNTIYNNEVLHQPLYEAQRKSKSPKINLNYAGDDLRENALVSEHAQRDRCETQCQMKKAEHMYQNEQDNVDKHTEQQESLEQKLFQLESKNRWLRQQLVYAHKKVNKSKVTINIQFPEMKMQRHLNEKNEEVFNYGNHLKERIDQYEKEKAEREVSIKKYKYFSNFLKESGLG

- MFI [1]: 90
- MFI [2]: 74
Substance: isotype control (Example 1, flow cytometry with full-length murine antibodies) (antibody)
